# Fewer inactive variants are shown than the library holds.
# B1: TPR 5TU (parent)
# chain: GGAUCUUCUCGAUCUAACAAAAAAGACAAAUCUGCCACAAAGCUUGAGAGCAUCUUCGGAUGCAGAGGCGGCAGCCUUCGGUGGCGCGAUAGCGCCAACGUUCUCAACUAUGACACGCAAAACGCGUGCUCCGUUGAAUGGAGUUUAUCAUG
# Variants of: B1
# Test: polymerase ribozyme fitness, log enrichment relative to wild type (log ratio); higher = more active; in vitro selection for triplet polymerase activity
# Method in brief: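 In triplicate, a single round of in vitro selection was run on each mutant library, PCR-built and transcribed, covering one subunit of a heterodimeric triplet polymerase ribozyme. Frozen incubation at −7 °C followed annealing with a biotinylated primer, partner subunit and triplets, and extended constructs were then gel-excised, streptavidin-captured and taken through RT-PCR. Fitness is the logarithm of genotype enrichment over wild-type enrichment, from inverse-variance-weighted replicate averages of Illumina-sequenced inputs and outputs. […] only genotypes with ≥10 input reads and ≥1 read per output were kept.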
row,Variant,polymerase ribozyme fitness (log ratio)
1,G58U G59U C96G C123A C149U,-3.08
2,G59A C99G,-1.14
3,G59C A60U G68A C75A C108A,-4.15
4,G58C C72A A110C A147G A150C,≤ -4.2
5,G58A U61A C87A G117A,≤ -4.2
6,G59A C95U C103G,-2.47
7,G58A G88C G92A C96A,≤ -4.2
8,G59C C85G,-1.64
9,G59A A106G U134A,-2.03
10,G59C C96U A106G C132U U145C,-0.905
11,C57U G83A C99A,-2.32
12,G58C A73G C85G,-2.21
13,C57U G83U,-1.72
14,C57U C125A,-0.844
15,G59A C75G A122U C129A G143U,-3.5
16,G58A C149A,-3.67
17,G58A U61G,-1.49
18,G58A C87A,≤ -4.2
19,G59A A60C C79G G81A U101G C132A U146A,≤ -4.2
20,C57U G86A C99G,-3.33
21,G59C A138G,-3.04
22,G59A A137U G141C,-3.95
23,G58C A60C G94A G100C C103A,≤ -4.2
24,G59C C95G C103U G126A,-2.28

row,Variant,polymerase ribozyme fitness (log ratio)
1,G59A G62A G86U A107C,≤ -4.2
2,G58U C105U A106G C149U,0.147
3,G59C C87G,≤ -4.2
4,G58C C95U A150C,-3.72
5,G58C A60G G67A C69A G92U G112A G143C,≤ -4.2
6,C57U G59U C93U G136U,-2.96
7,G58U G86A C87A,≤ -4.2
8,G58A C95U C96G,-1.01
9,G59C G65C C76G U145G C149A,≤ -4.2
10,G58U C76A,0.0806
11,G58A U90A C125G,≤ -4.2
12,G58A A147U,0.692
13,G58A A89G G94A,-1.91
14,C57U G81C A106U,-1.74
15,G59C C93G,-2.98
16,G59C C93U,-1.11
17,G59A A142G,-0.65
18,C57U G68U,-3.89
19,C57U G59C C93A U135G,≤ -4.2
20,G59A A60C G126A,-0.62
21,G59C C87U U102G C132U U145G,≤ -4.2
22,G58C A60G G92A A121U,-2.24
23,G59A A122G U148C,-3
24,G58U C95U,-0.414

row,Variant,polymerase ribozyme fitness (log ratio)
1,G59A G84A,-2.24
2,G59A A107U G126A,-3.68
3,G58A A73U C96U,-0.178
4,G59A C85A A115G C123U,-2.65
5,G59A G100C,≤ -4.2
6,G58A U104A,0.105
7,G58A C76U U101G,0.481
8,G58C A106C,0.355
9,G59C A73G G86U,-2.26
10,G59A G92C,-2.78
11,G58C C95U,-0.651
12,G58C G94A,-0.64
13,G58A C72U C76G C99G A110C,≤ -4.2
14,G58U G59U U82A G84A A115U G143A,≤ -4.2
15,G59A A64U C85A G92A U144C,≤ -4.2
16,G58A C95U,-0.535
17,G58C G68A,-3.97
18,G58C A97U,-0.712
19,C57U C118G U145C,-0.881
20,G58C U82A G143C,-1.86
21,G58C A73G U101C C125G,-0.932
22,G58C C85G U90A U139A G140U,≤ -4.2
23,G58C G59A C85U G133C,-1.29
24,G58C G140C,-4.02

row,Variant,polymerase ribozyme fitness (log ratio)
1,G59A A122U,0.148
2,G58C G126U U145G,-3.82
3,C57U C96G,-0.76
4,C57U C96U,-0.201
5,G58C C76G U77G,≤ -4.2
6,G58U G94U G140U,-3.9
7,G59C C85G A89U G92A,≤ -4.2
8,G59A C87U,-1.42
9,G58U C95A C149U,-0.828
10,G58C A122U A142G G143A,-4.05
11,G58A G71U,-0.673
12,C57U G86A A120G G141C,-2.82
13,G59C C96G C118G A142U,-3.61
14,G58A C87G C116A A147C U151A,≤ -4.2
15,G58C C87G,≤ -4.2
16,G58U G92A,-2.51
17,G58A G59A C96A,0.0408
18,C57U G86A A98U,-1.55
19,G58C A66C G67A A89C U111C C116A C129G U148A,≤ -4.2
20,G58C A64C C69G C85U A110U U134G,≤ -4.2
21,G58C G83A C93U,-2.03
22,G58C A119C,-0.0646
23,G58U A89G,-0.659
24,G59C A60C C87G,≤ -4.2

row,Variant,polymerase ribozyme fitness (log ratio)
1,G58C A150U,1.46
2,G58A C87G A142C,≤ -4.2
3,G58A C85G,-2.86
4,G58A C95U G143C,-1.9
5,G58U G126U A150C,-4.03
6,C57U G84U G126C,-0.969
7,G59C A60U,0.153
8,C57U C96U C103U G117U G136A G141U,≤ -4.2
9,G58A U101G C132G G133C A142C,-3.72
10,G59C C87A U101C G141U A147U,≤ -4.2
11,G58C C96U,-1.02
12,C57U G117C A122G,0.204
13,G58A A73G G88C A150U,≤ -4.2
14,G59A C75U C85U U144A,-1.61
15,G58C A89U C95A G126U,-0.892
16,G58A C93A G112C,-4.12
17,G58A C79U,-1.65
18,G59C C75U A98U,-0.152
19,G59A U127A,-3.81
20,G59C C69U C93G G100A G124U,≤ -4.2
21,C57U G126A A138U,-3.43
22,G58A C87A A91C C99U,≤ -4.2
23,G58A A107U G126U C149G,≤ -4.2
24,G58C C72U A98G,0.461

row,Variant,polymerase ribozyme fitness (log ratio)
1,G58C G84U A97U,-3.58
2,G59A G94U C95A U104C,-2.63
3,G58C C85A,-3.71
4,G58U A60G A137C,≤ -4.2
5,G58A C85G A115G,-2.89
6,G59C A60G C85A,-1.88
7,C57U G80A,-0.314
8,G59A U61C,-0.735
9,G59A C85U C149G,-3.59
10,G58C C85U G117U,-0.00983
11,G59A A60C U61A G81A C103G,≤ -4.2
12,G59C C75U,-1.52
13,G58U A60C C105G U148G,≤ -4.2
14,C57U C131U,1.26
15,G59C C76A C87G,≤ -4.2
16,C57U G124U G128U,-3.76
17,C57U U102G,-1.87
18,G58A C85U A106G,-0.0661
19,G58A G86A,-1.63
20,C57U C103G,-1.7
21,G58C G143A,-0.724
22,G59A G83U G84A,-1.23
23,G59A C103A A107U A110U U111A C118A A138G,≤ -4.2
24,G58A G84A U104G G126U,-0.778

row,Variant,polymerase ribozyme fitness (log ratio)
1,G59A C76G G80C C116G C118G,≤ -4.2
2,G59C C93G A97U U127C A137G,≤ -4.2
3,G59C A119U C149U,-0.775
4,G58A G83A C87U U101G G141C,-3.39
5,G59A G83C A89U,-1.39
6,G58U G83C,-0.165
7,G59A C76G,≤ -4.2
8,C57U G92A U104C U135C,≤ -4.2
9,G59A G133U G136C U148C,≤ -4.2
10,G59A G94A,-0.522
11,G58A C99U,-0.207
12,G58A G143U,-1.82
13,G58C C76A G83U,-2.66
14,G58U C105U U134A A137U U144A,≤ -4.2
15,C57U U101G,-0.262
16,C57U U101A,0.41
17,G59C A73G C85A,-2.84
18,G58U G86A,-1.55
19,G58A C96U,0.538
20,G59A C85G C99U A120G,≤ -4.2
21,G58U A60G,0.208
22,G59C C103U,0.229
23,G58C C96U A150G,-0.919

# Source: the RNAGym collection of RNA variant scans (doi:10.1073/pnas.2313332121)
